Target: human purified plasma‐derived fibronectin (human)
Assay: ELISA

recombinant VWF p.D2509E (from UniProt P04275 23-2813) (natural protein)
binding as percent of normal VWF: 68%
